Source: patent US11466286B2, “Methods and compositions for conferring and/or enhancing herbicide tolerance using protoporphyrinogen oxidase or variant thereof” (FarmHannong Co., Ltd., priority 2016, dated 2022)

Assays:
CyPPO13 = test: PPO enzyme activity and IC50 by herbicides, CyPPO13 wild type and variants (MBP-PPO fusion); assay type: biochemical, Synechococcus sp. JA-3-3Ab; conditions: PPO enzyme activity of CyPPO13 protein, wild type = 100
Description: (§1) The enzyme activities of PPO protein and PPO protein variants were examined, and inhibition assay by PPO-inhibiting herbicides was conducted. It was confirmed that the PPO protein has low water-solubility, but in case of being expressed as a fusion protein with MBP (maltose binding protein) (MBP-PPO), the PPO protein is able to be stably expressed as water-soluble form. Therefore, the wild type and variant proteins which were expressed in the form of fusion protein with MBP were used in the present test (refer to FIG. 4).
(§2) In order to express wild type genes and mutant genes of CyPPO10 and CyPPO13 (refer to Example 1 and Example 4), those genes were introduced to pMAL-c2X vector (refer to FIG. 5) respectively, and then cloned to BL21 (DE3) E. coli (CodonPlus).
(§3) The enzyme activity of the purified wild type protein and variant proteins of CyPPO10 and CyPPO13 was measured by the following process.
(§4) At first, a substrate of PPO protein, Protoporphyrinogen IX was synthesized. This process was performed in the space where nitrogen gas is streamed. 6 mg of protoporphyrin IX was dissolved in 20% (v/v) EtOH 20 ml, and stirred under dark condition for 30 minutes. The obtained protoporphyrinogen IX solution was put into a 15 ml screw tube in an amount of 800 and flushed with nitrogen gas for 5 minutes. To this, 1 g of sodium amalgam was added and vigorous shaking was performed for 2 minutes. The lid was open to exhaust hydrogen gas in the tube. Thereafter, the lid was closed and incubated for 3 minutes. The […] was filtered using syringe and cellulose membrane filter. To 600 μl of the obtained […], 2M MOPS [3-(N-morpholino)propanesulfonic acid] was added in an amount of approximately 300 thereby adjusting pH to 8.0. To determine the enzyme activity of PPO protein, a reaction mixture was prepared with the following composition (based on 10 ml): 50 mM Tris-Cl (pH 8.0); 50 mM NaCl; 0.04% (v/v) Tween 20; 40 mM glucose (0.072 g); 5 units glucose oxidase (16.6 mg); and 10 units catalase (1 μl).
(§5) Two hundred microliters (200 μl) of reaction mixture containing a purified PPO protein were placed in 96 well plates, and preincubated for 30 min at room temperature to reduce the oxygen concentration by the reaction of glucose oxidase-catalase. The mineral oil was layered and then the reaction was initiated by adding the substrate, […], to a final concentration of 50 μM. The reaction proceeded at room temperature for 30 min and the fluorescence of protoporphyrin IX was measured using Microplate reader (Sense, Hidex) (excitation: 405 nm; emission: 633 nm). To calculate the PPO enzyme activity, protoporphyrinogen IX solution was kept open in the air to oxidize the solution (overnight). To this, 2.7N HCl was added, and the absorbance at 408 nm was measured. A standard curve was generated using standard protoporphyrin IX, and the PPO activity was measured by calibration of protoporphyrin IX using the standard curve of protoporphyrin IX.
(§6) The final concentration of each herbicide was as follows: […]

CyPPO10 = test: PPO enzyme activity and IC50 by herbicides, CyPPO10 wild type and variants (MBP-PPO fusion); assay type: biochemical, Thermosynechococcus elongatus BP-1; conditions: PPO enzyme activity of CyPPO10 protein, wild type = 100
Description: as §1, §2, §3, §4, §5, §6

Molecule | Activity (%) (CyPPO13) | Activity (%) (CyPPO10)
CyPPO13 F373L: CyPPO13 (SEQ ID NO: 4) PPO variant (protein, Synthetic CyPPO13) MNPATPEPLNAEVVVIGAGISGLTLAWRLQQGLSARGGSPQAVLLAEASSRVGGCISTQSKDGYRWEEGPNSFTPTPALLNLIAEVGLTDQLVLADAKLPRYIYWEGALLPVPLSPAAALGSRLLSVGGKLRALQGLLGFVPPPPGHEETVRQFFRRQLGSEVAERLVEPFTSGVYAGDPDQLSAVAAFPRVAGLEERYGSLFAGALQALRQRPQPSPAAIQPPPKRGQLGNLRQGLQQLPEALAQKLGDSLRLGWRALQLKRAGELYWVGFETPEGSRWVAARQVVLALPAYEAAALLQELNPPASQLLAEILYPPVAVVALAYPQEALPQPLRGFGHLIPRSQGLRTLGTIWASCLFPERAPQGYHSFLSLLGGATDAALARRRGIPPIPALSPEERAQIAHAELSQVLLTRRAEPVYLGERLWPRAIPQYTLGHRQRIAQVQAHLASQTPGIWVCANYLDGVALGDCVRRAEALAQQLLSQV | 82 | 
CyPPO13 R101A + F373M: CyPPO13 (SEQ ID NO: 4) PPO variant (protein, Synthetic CyPPO13) MNPATPEPLNAEVVVIGAGISGLTLAWRLQQGLSARGGSPQAVLLAEASSRVGGCISTQSKDGYRWEEGPNSFTPTPALLNLIAEVGLTDQLVLADAKLPAYIYWEGALLPVPLSPAAALGSRLLSVGGKLRALQGLLGFVPPPPGHEETVRQFFRRQLGSEVAERLVEPFTSGVYAGDPDQLSAVAAFPRVAGLEERYGSLFAGALQALRQRPQPSPAAIQPPPKRGQLGNLRQGLQQLPEALAQKLGDSLRLGWRALQLKRAGELYWVGFETPEGSRWVAARQVVLALPAYEAAALLQELNPPASQLLAEILYPPVAVVALAYPQEALPQPLRGFGHLIPRSQGLRTLGTIWASCLFPERAPQGYHSFLSMLGGATDAALARRRGIPPIPALSPEERAQIAHAELSQVLLTRRAEPVYLGERLWPRAIPQYTLGHRQRIAQVQAHLASQTPGIWVCANYLDGVALGDCVRRAEALAQQLLSQV | 55 | 
CyPPO13 F373N: CyPPO13 (SEQ ID NO: 4) PPO variant (protein, Synthetic CyPPO13) MNPATPEPLNAEVVVIGAGISGLTLAWRLQQGLSARGGSPQAVLLAEASSRVGGCISTQSKDGYRWEEGPNSFTPTPALLNLIAEVGLTDQLVLADAKLPRYIYWEGALLPVPLSPAAALGSRLLSVGGKLRALQGLLGFVPPPPGHEETVRQFFRRQLGSEVAERLVEPFTSGVYAGDPDQLSAVAAFPRVAGLEERYGSLFAGALQALRQRPQPSPAAIQPPPKRGQLGNLRQGLQQLPEALAQKLGDSLRLGWRALQLKRAGELYWVGFETPEGSRWVAARQVVLALPAYEAAALLQELNPPASQLLAEILYPPVAVVALAYPQEALPQPLRGFGHLIPRSQGLRTLGTIWASCLFPERAPQGYHSFLSNLGGATDAALARRRGIPPIPALSPEERAQIAHAELSQVLLTRRAEPVYLGERLWPRAIPQYTLGHRQRIAQVQAHLASQTPGIWVCANYLDGVALGDCVRRAEALAQQLLSQV | 40 | 
CyPPO13 F373H: CyPPO13 (SEQ ID NO: 4) PPO variant (protein, Synthetic CyPPO13) MNPATPEPLNAEVVVIGAGISGLTLAWRLQQGLSARGGSPQAVLLAEASSRVGGCISTQSKDGYRWEEGPNSFTPTPALLNLIAEVGLTDQLVLADAKLPRYIYWEGALLPVPLSPAAALGSRLLSVGGKLRALQGLLGFVPPPPGHEETVRQFFRRQLGSEVAERLVEPFTSGVYAGDPDQLSAVAAFPRVAGLEERYGSLFAGALQALRQRPQPSPAAIQPPPKRGQLGNLRQGLQQLPEALAQKLGDSLRLGWRALQLKRAGELYWVGFETPEGSRWVAARQVVLALPAYEAAALLQELNPPASQLLAEILYPPVAVVALAYPQEALPQPLRGFGHLIPRSQGLRTLGTIWASCLFPERAPQGYHSFLSHLGGATDAALARRRGIPPIPALSPEERAQIAHAELSQVLLTRRAEPVYLGERLWPRAIPQYTLGHRQRIAQVQAHLASQTPGIWVCANYLDGVALGDCVRRAEALAQQLLSQV | 26 | 
CyPPO13 F373T: CyPPO13 (SEQ ID NO: 4) PPO variant (protein, Synthetic CyPPO13) MNPATPEPLNAEVVVIGAGISGLTLAWRLQQGLSARGGSPQAVLLAEASSRVGGCISTQSKDGYRWEEGPNSFTPTPALLNLIAEVGLTDQLVLADAKLPRYIYWEGALLPVPLSPAAALGSRLLSVGGKLRALQGLLGFVPPPPGHEETVRQFFRRQLGSEVAERLVEPFTSGVYAGDPDQLSAVAAFPRVAGLEERYGSLFAGALQALRQRPQPSPAAIQPPPKRGQLGNLRQGLQQLPEALAQKLGDSLRLGWRALQLKRAGELYWVGFETPEGSRWVAARQVVLALPAYEAAALLQELNPPASQLLAEILYPPVAVVALAYPQEALPQPLRGFGHLIPRSQGLRTLGTIWASCLFPERAPQGYHSFLSTLGGATDAALARRRGIPPIPALSPEERAQIAHAELSQVLLTRRAEPVYLGERLWPRAIPQYTLGHRQRIAQVQAHLASQTPGIWVCANYLDGVALGDCVRRAEALAQQLLSQV | 81 | 
CyPPO13 F373V: CyPPO13 (SEQ ID NO: 4) PPO variant (protein, Synthetic CyPPO13) MNPATPEPLNAEVVVIGAGISGLTLAWRLQQGLSARGGSPQAVLLAEASSRVGGCISTQSKDGYRWEEGPNSFTPTPALLNLIAEVGLTDQLVLADAKLPRYIYWEGALLPVPLSPAAALGSRLLSVGGKLRALQGLLGFVPPPPGHEETVRQFFRRQLGSEVAERLVEPFTSGVYAGDPDQLSAVAAFPRVAGLEERYGSLFAGALQALRQRPQPSPAAIQPPPKRGQLGNLRQGLQQLPEALAQKLGDSLRLGWRALQLKRAGELYWVGFETPEGSRWVAARQVVLALPAYEAAALLQELNPPASQLLAEILYPPVAVVALAYPQEALPQPLRGFGHLIPRSQGLRTLGTIWASCLFPERAPQGYHSFLSVLGGATDAALARRRGIPPIPALSPEERAQIAHAELSQVLLTRRAEPVYLGERLWPRAIPQYTLGHRQRIAQVQAHLASQTPGIWVCANYLDGVALGDCVRRAEALAQQLLSQV | 83 | 
CyPPO10 I340T: CyPPO10 (SEQ ID NO: 2) PPO variant (protein, Synthetic CyPPO10) MIEVDVAIVGGGLSGLSVAWRLQRSAPHYSGVLLEASDRLGGNITTQAAEGFVWELGPNSFAPTPALLQLIAEVGLHSELIRGDRHLPRYIYWRGELYPLEPTRPLALATSNLLSPWGKVRAALGALGFVPPYLGSGDESVDSFFRRHLGQEVAERLVAPFVSGVYAGDPQQLSAAAAFRRIAQLEKLGGSLIAGALRLRRQQPPQPKPPAQVQMRPGELGSFREGLAALPRAIAQQLKAPLHLQTPVEAITPEPKGGYLLRSGEQTWHARSVVLATPAYQTAELVAPFQPAIARALATIPYPTVACVVLAYPAGLGRSVRPGFGVLVPRGQGIRTLGTTWSSCLFPQRTPAGWQVFTSFIGGATDPDLASLREEAIVEQVQQDLTRLLDLPAAKARLLGMKVWRRAIPQYIVGYPQQWQQVTHALTQTPGLFLCSNYAEGVALGDRVEHGNRTAAAVAAYLAGGQS |  | 19
CyPPO10 F360T: CyPPO10 (SEQ ID NO: 2) PPO variant (protein, Synthetic CyPPO10) MIEVDVAIVGGGLSGLSVAWRLQRSAPHYSGVLLEASDRLGGNITTQAAEGFVWELGPNSFAPTPALLQLIAEVGLHSELIRGDRHLPRYIYWRGELYPLEPTRPLALATSNLLSPWGKVRAALGALGFVPPYLGSGDESVDSFFRRHLGQEVAERLVAPFVSGVYAGDPQQLSAAAAFRRIAQLEKLGGSLIAGALRLRRQQPPQPKPPAQVQMRPGELGSFREGLAALPRAIAQQLKAPLHLQTPVEAITPEPKGGYLLRSGEQTWHARSVVLATPAYQTAELVAPFQPAIARALATIPYPTVACVVLAYPAGLGRSVRPGFGVLVPRGQGIRTLGTIWSSCLFPQRTPAGWQVFTSTIGGATDPDLASLREEAIVEQVQQDLTRLLDLPAAKARLLGMKVWRRAIPQYIVGYPQQWQQVTHALTQTPGLFLCSNYAEGVALGDRVEHGNRTAAAVAAYLAGGQS |  | 85
